The target in one assay is actin (UniProt P68135). As to the kind of experiment: MST.
The target of assay [1] is plasminogen (affinity column for M. pneumoniae lysate; microscale thermophoresis). As to the kind of experiment: MST; fluorescently labelled host protein, Ef-Tu unlabelled; 40%, 60% and 80% MST power, 30 s.
The target of another assay is fetuin (UniProt P12763). The description is as above.
Chain of UniProt P12763 (P12763 19-359): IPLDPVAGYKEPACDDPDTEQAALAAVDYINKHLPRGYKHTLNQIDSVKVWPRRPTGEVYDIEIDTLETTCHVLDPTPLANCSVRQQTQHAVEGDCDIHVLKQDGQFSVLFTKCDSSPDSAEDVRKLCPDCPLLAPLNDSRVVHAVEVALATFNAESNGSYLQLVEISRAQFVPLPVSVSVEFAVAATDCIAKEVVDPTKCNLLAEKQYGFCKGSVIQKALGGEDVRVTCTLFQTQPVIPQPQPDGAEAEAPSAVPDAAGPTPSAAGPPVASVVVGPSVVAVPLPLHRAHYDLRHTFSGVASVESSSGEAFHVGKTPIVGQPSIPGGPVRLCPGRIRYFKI

For the substance “recombinant Elongation factor Tu of Mycoplasma pneumoniae (from UniProt P23568 1-394) (natural protein)”, the Kd in the assay with actin was found to be 19 nM; in assay [1], 933 nM.
Regarding “recombinant Elongation factor Tu of Mycoplasma pneumoniae (from UniProt P23568 1-394) (natural protein; other documents disagree on this pair)”, in the assay with fetuin, the Kd was 53 nM.

For orientation: Kd means the constant that tells how readily two partners part at equilibrium. High values mean weaker binding, low ones tighter binding.
